From publication PMC11885566 (Communications Biology, 2025)

How the values were obtained:
[1] = target: SARS-CoV-2 wild-type RBD protein (BLI) (SARS-CoV-2, UniProt P0DTC2); test: BLI
[2] = target: SARS-CoV RBD protein (BLI) (SARS-CoV (isolate of the bought protein …, UniProt P59594)); test: BLI
[3] = target: SARS-CoV-2 S2 subdomain protein with D7-tag (SARS-CoV-2 (NC_045512.2, Wuhan-Hu-1), UniProt P0DTC2); test: ELISA
[4] = target: SARS-CoV-2 NTD protein with D7-tag (SARS-CoV-2 (NC_045512.2, Wuhan-Hu-1), UniProt P0DTC2); test: ELISA
[5] = target: T1, SARS-CoV-2 S ectodomain with D7-tag (SARS-CoV-2, UniProt P0DTC2); test: cell-based or functional assay
[6] = target: T1, SARS-CoV-2 S ectodomain with D7-tag; test: ELISA
[7] = target: SARS-CoV-2 S1 subdomain protein with D7-tag (SARS-CoV-2 (NC_045512.2, Wuhan-Hu-1), UniProt P0DTC2); test: ELISA
[8] = target: SARS-CoV-2 RBD protein with D7-tag (SARS-CoV-2, UniProt P0DTC2); test: ELISA

B1: CYFN1006-1 (antibody, V domains shown)
VH: QMQLVQSGAEVKKPGESLKISCKGSGYTFSYYWIGWVRQMPGKGLEWMGIIYPGDSDTRYSPSFQGQVTISADKSISTAYLHWSSLKASDTAMYYCARQGDLGDWILLGYWGQGTLVTVSS
VL: QSALTQPRSVSGSLGQSVTISCTGISSDVGGDNYVSWYQQHPGKAPKLMIYDVSKRPSGVPDRFSGSKSGNTASLTISGLQADDEADYYCCSYALSRVVFGGGTMLTVL
With B1 the Kd [1] was less than 0.001 nM, the Kd [2] was 32.4 nM and the binding result [3] was “no binding”. For the same binder, the binding result [4] was “no binding” and the “neutralisation of SARS-CoV-2, IC50” value [5] was less than 5 ng/mL.

B2: CYFN1006-2 (antibody, V domains shown)
VH: QMQLVQSGAEVKKPGESLKISCKGSGYTFSYYWIGWVRQMPGKGLEWMGIIYPGDSDTRYSPSFQGQVTISADKSISTAYLHWSSLKASDTAMYYCARQGDLGDWILLGYWGQGTLVTVSS
VL: QSALTQPPSASGSPGQSVTISCTGASSDVGGYNYVSWYQQHPGKAPKLMIYEVNKRPSGVPDRFSGSKSGNTASLTISGLQADDEADYYCCSYALSRVVFGGGTMLTVL
B2: binds [1]; binds [6]; binds [7]. B2: no binding [3]; binds [8]; no binding [4].
